Test results reported in patent US20090075925A1, “Methods and Compositions Related to APOBEC-1 Expression” (priority 2006, published 2009).

Columns and labels:
apoB mRNA editing [1] = assay: apoB mRNA editing in McArdle cells (ethanol, ACF wild type, mutants and isoforms); assay type: cell-based, rat; conditions: for effect of isoform expression on editing: HA-tagged, transfected McArdle cells
Description: McArdle RH7777 cells (ATCC Manassas, Va.) stably expressing HA epitope-tagged APOBEC-1 (Yang et al. J Biol Chem 272:27700-6 (1997)) were treated for 4 hours with 0.9% ethanol and fractionated into nuclear extracts (Van Mater et al. (1998)).
To calibrate the system cells were incubated in the presence of ethanol for 4 hours and the amount of edited apoB mRNA determined.
The overall expression and subcellular localization of epitope tagged ACF isoforms is established by western blotting of nuclear and cytoplasmic extracts (prepared using NE-PER system; Pierce). These biochemical studies are complemented by immunofluorescence microscopy of paraformaldehyde fixed cells reacted with epitope tag or ACF isoform-specific antibodies. In pilot experiments varying levels of HA-tagged ACF43 and ACF45 were expressed by transfecting differing amounts of cDNA into McArdle or McAPOBEC cells (FIGS. 35A & C, western blots). […] The above transient transfection scenarios can be recapitulated in ethanol treated cells to evaluate the affect of ACF isoform abundance on cells ability to respond to metabolic perturbation. […] ACF expression levels, subcellular localization and editing activity are determined from replicate experiments and the relative affects of overexpressing each isoform compared in the absence (negative control) or presence of ethanol and to the response seen in wild type cells (positive control).

apoB mRNA editing [2] = assay: apoB mRNA editing in McAPOBEC cells transfected with ACF isoforms; assay type: cell-based, rat; conditions: HA-tagged
Description: The overall expression and subcellular localization of epitope tagged ACF isoforms is established by western blotting of nuclear and cytoplasmic extracts (prepared using NE-PER system; Pierce). These biochemical studies are complemented by immunofluorescence microscopy of paraformaldehyde fixed cells reacted with epitope tag or ACF isoform-specific antibodies. In pilot experiments varying levels of HA-tagged ACF43 and ACF45 were expressed by transfecting differing amounts of cDNA into McArdle or McAPOBEC cells (FIGS. 35A & C, western blots). The level of exogenously expressed HA-tagged APOBEC-1 in McAPOBEC cells was high and unaffected by ACF isoform expression (FIG. 35C). Sufficient endogenous ACF was expressed in McAPOBEC cells to support 61% editing (FIG. 35D, poisoned primer extension) given the level of APOBEC-1 overexpression (FIG. 35C). […] ACF43's facilitation of ACF64/65 binding to apoB mRNA enhanced editing activity only when APOBEC-1 abundance was not rate limiting (analogous to FIG. 34, insulin). […] ACF expression levels, subcellular localization and editing activity are determined from replicate experiments and the relative affects of overexpressing each isoform compared in the absence (negative control) or presence of ethanol and to the response seen in wild type cells (positive control).

Molecule	stimulation of editing by stable ectopic expression compared to untransfected McArdle cells (apoB mRNA editing [1]; stable cell line)	further stimulation of editing on addition of ethanol (apoB mRNA editing [1]; stable cell line, ethanol)	effect of isoform expression on editing (61% editing without) (apoB mRNA editing [2])	effect of isoform expression on editing (apoB mRNA editing [1])	enhancement of editing (apoB mRNA editing [1]; stable McArdle cell line)
ACF64: 64 kDa ACF variant, SEQ ID NO:1 (protein) MESNHKSGDGLSGTQKEAALRALVQRTGYSLVQENGQRKYGGPPPGWDAAPPERGCEIFIGKLPRDLFEDELIPLCEKIGKIYEMRMMMDFNGNNRGYAFVTFSNKVEAKNAIKQLNNYEIRNGRLLGVCASVDNCRLFVGGIPKTKKREEILSEMKKVTNEGVVDVIVYPSAADKTKNRGFAFVEYESHRTAAMARRKLLPGRIQLWGHGIAVDWAEPEVEVDEDTMSSVKILYVRNLMLSTSEEMIEKEFNNIKPGAVERVKKIRDYAFVHFSNRKDAVEAMKALNGKVLDGSPIEVTLAKPVDKDSYVRYTRGTGGRGTMLQGEYTYSLGQVYDPTTTYLGAPVFYAPQTYAAIPSLHFPATKGHLSNRAIIRAPSVRGAAGVRGLGGRGYLAYTGLGRGYQVKGDKREDKLYDILPGMELTPMNPVTLKPQGIKLAPQILEEICQKNNWGQPVYQLHSAIGQDQRQLFLYKITIPALASQNPAIHPFTPPKLSAFVDEAKTYAAENYTLQTLGIPTDGGDGTMATAAAAATAFPGYAVPNATAPVSAAQLKQAVTLGQDLAAYTNTYEVYPTFAVTARGDGYGTF	19%	3 fold	–	–	–
ACF43: 43 kDa ACF variant, SEQ ID NO:19 (protein) MESNHKSGDGLSGTQKEAALRALVQRTGYSLVQENGQRKYGGPPPGWDAAPPERGCEIFIGKLPRDLFEDELIPLCEKIGKIYEMRMMMDFNGNNRGYAFVTFSNKVEAKNAIKQLNNYEIRNGRLLGVCASVDNCRLFVGGIPKTKKREEILSEMKKVTEGVVDVIVYPSAADKTKNRGFAFVEYESHRAAAMARRKLLPGRIQLWGHGIAVDWAEPEVEVDEDTMSSVKILYVRNLMLSTSEEMIEKEFNNIKPGAVERVKKIRDYAFVHFSNRKDAVEAMKALNGKVLDGSPIEVTLAKPVDKDSYVRYTRGTGGRGTMLQGEYTYSLGQVYDPTTTYLGAPVFYAPQTYAAIPSLHFPATKGHLSNRAIIRAPSVRGAAGVRGLGGRGYLAYTGLGRGYQVKGDKREDKLYDILPGMELTPMNPVTLKPQGIKLAPQILEEICQKNNWGQPVYQLHSAIGQDQRQLFLYKITIPALASQNPAIHPFTPPKLSAFVDEAKTYAAEYTLQTLGIPTDGGDGTMATAAAAATAFPGYAVPNATAPVSAAQLKQAVTLGQDLAAYTTYEVYPTFAVTARGDGYGTF	–	–	stimulated editing activity	did not affect editing	–
ACF45: 45 kDa ACF variant, SEQ ID NO:18 (protein) MESNHKSGDGLSGTQKEAALRALVQRTGYSLVQENGQRKYGGPPPGWDAAPPERGCEIFIGKLPRDLFEDELIPLCEKIGKIYEMRMMMDFNGNNRGYAFVTFSNKVEAKNAIKQLNNYEIRNGRLLGVCASVDNCRLFVGGIPKTKKREEILSEMKKVTEGVVDVIVYPSAADKTKNRGFAFVEYESHRAAAMARRKLLPGRIQLWGHGIAVDWAEPEVEVDEDTMSSVKILYVRNLMLSTSEEMIEKEFNNIKPGAVERVKKIRDYAFVHFSNRKDAVEAMKALNGKVLDGSPIEVTLAKPVDKDSYVRYTRGTGGRGTMLQGEYTYSLGQVYDPTTTYLGAPVFYAPQTYAAIPSLHFPATKGHLSNRAIIRAPSVRGAAGVRGLGGRGYLAYTGLGRGYQVKGDKREDKLYDILPGMELTPMNPVTLKPQGIKLAPQILEEICQKNNWGQPVYQLHSAIGQDQRQLFLYKITIPALASQNPAIHPFTPPKLSAFVDEAKTYAAEYTLQTLGIPTDGGDGTMATAAAAATAFPGYAVPNATAPVSAAQLKQAVTLGQDLAAYTTYEVYPTFAVTARGDGYGTF	–	–	had no affect	inhibited editing over two-fold	–
S154D: ACF64 with serine 154 to aspartic acid substitution (protein) MESNHKSGDGLSGTQKEAALRALVQRTGYSLVQENGQRKYGGPPPGWDTTPPERGCEIFIGKLPRDLFEDELIPLCEKIGKIYEMRMMMDFNGNNRGYAFVTFSNKQEAKNAIKQLNNYEIRNGRLLGVCASVDNCRLFVGGIPKTKKREEILDEMKKVTEGVVDVIVYPSAADKTKNRGFAFVEYESHRAAAMARRRLLPGRIQLWGHPIAVDWAEPEVEVDEDTMSSVKILYVRNLMLSTSEEMIEKEFNSIKPGAVERVKKIRDYAFVHFSNREDAVEAMKALNGKVLDGSPIEVTLAKPVDKDSYVRYTRGTGGRNTMLQEYTYPLSHVYDPTTTYLGAPVFYTPQAYAAIPSLHFPATKGHLSNRALIRTPSVRGAAGVRGLGGRGYLAYTGLGRGYQVKGDKRQDKLYDLLPGMELTPMNTISLKPQGVKLAPQILEEICQKNNWGQPVYQLHSAIGQDQRQLFLYKVTIPALASQNPAIHPFTPPKLSAYVDEAKRYAAEHTLQTLGIPTEGGDAGTTAPTATSATVFPGYAVPSATAPVSTAQLKQAVTLGQDLAAYTTYEVYPTFAVTTRGDGYGTF	–	–	–	–	67%
